Assay results as given in patent US20140096274A1 (published 2014).

How the values were obtained:
human RANK-Fc = biological target: T1, human RANK-Fc (human, UniProt Q9Y6Q6 30-212); experiment: SPR single cycle kinetics, hRANK-Fc captured at 20-40 RU, 1:1 fit
T1 construct: also called hRANK-Fc; hRANK-FC; not shown: Fc part of the bought fusion; not described
T1 sequence (looked up): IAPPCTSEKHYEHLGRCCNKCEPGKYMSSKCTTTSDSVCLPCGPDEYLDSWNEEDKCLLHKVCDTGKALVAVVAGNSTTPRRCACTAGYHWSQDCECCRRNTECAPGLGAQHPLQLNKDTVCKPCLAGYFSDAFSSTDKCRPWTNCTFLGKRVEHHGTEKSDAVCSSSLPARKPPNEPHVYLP
Experimental: (§1) Considering the high similarity between human RANKL and murine RANKL (>88%) the murine dimers were also tested for hRANK binding. Binding to hRANK-Fc and mRANK-Fc (both from R&D Systems) was recorded for five consecutive concentrations of murine flag RANKL WT, D1 (mD1) or D2 (mD2) (˜0.3-15 nM) using SPR with a single cycle kinetics based approach. The capture level of mRANK-Fc and hRANK-Fc was low (20-40 RU) in order to ensure 1:1 binding. Both WT and the D1 and D2 dimeric variants bound with high affinity towards the mRANK receptor and to the human RANK receptor (FIG. 16: Table 8).

murine RANK-Fc [1] = biological target: T2, murine RANK-Fc (mouse, UniProt O35305 31-214); experiment: SPR single cycle kinetics, mRANK-Fc captured at 20-40 RU, 1:1 fit
T2 construct: also called mRANK-Fc; mRANK-FC; not shown: Fc part of the bought fusion; not described
T2 sequence (looked up): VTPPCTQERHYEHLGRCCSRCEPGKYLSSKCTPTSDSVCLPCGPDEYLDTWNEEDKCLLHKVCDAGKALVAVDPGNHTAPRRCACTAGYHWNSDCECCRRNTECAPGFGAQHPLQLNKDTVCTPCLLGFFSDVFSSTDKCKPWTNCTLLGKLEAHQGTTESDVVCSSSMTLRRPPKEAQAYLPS
Experimental: as §1

murine RANK-Fc [2] = biological target: T2, murine RANK-Fc; experiment: ELISA dose response on RANK-Fc coated wells, global four parameter logistic fit
Experimental: The ability of dimer 1 and dimer 2 to compete with wild-type murine RANKL for binding to mRANK was investigated using a competitive ELISA. […] After washing off unbound RANKL, mRANK bound flag-mRANKL was detected by an anti-flag antibody. A RANKL dimer concentration dependant decrease in mRANK binding and right shift in the EC₅₀ of flag-mRANKL was observed (FIGS. 7 and 18B), indicating a competitive inhibition based mechanism. IC₅₀ values for dimer 1 and dimer 2 were calculated to be 4 nM by a global fit of the individual dose response curves using a four parameter logistic model.
As the concentration of flagRANKL WT used in the competitive ELISA was above its KD for mRANK-Fc, for mD2 also an EC₅₀ shift experiment was performed. A dose-response curve of 0-50 nM flagRANKL WT binding to RANK-Fc was recorded in the presence and absence of various fixed concentrations of D2 (3, 5, 11, 22 or 43 nM) (FIG. 18B and FIG. 7). […] Upon a global fit of the individual dose response curves using a four parameter logistic model, an EC₅₀ for flag-mRANKL WT of 0.6 nM (±0.04 nM) was obtained and for mD2 an A₂ value of 4 nM (±0.5 nM) was calculated, i.e. the concentration of inhibitor required to shift the dose response curve by a factor of 2.

murine RANK-Fc [3] = biological target: T2, murine RANK-Fc; experiment: SPR, mRANK-Fc captured at low density on C1 chip, 1:1 Langmuir fit, mean of three experiments
Experimental: SPR measurements were performed using ˜1500-2000 RU of captured mRANK-Fc on the surface of a CM5 sensor chip (FIGS. 15B and C). This is a density that results in a mean ratio of RANKL:RANK of approx 1:3 (52). […] (Table 5, below) In contrast, the ratio of binding of RANKL variants mD1 and mD2 to mRANK-Fc seems hardly to be affected by receptor density (Table 5). The values obtained after injecting 500 nM of the dimeric variants correlate to binding of 1.5 monomeric subunits by mD1 and 1.6 monomeric subunits by mD2.
Kinetic binding parameters were also measured for mD1 and mD2 binding to mRANK-FC in real time using SPR using murine RANKL-WT as a control (FIG. 15; table 8). RANKL dimer binding curves to mRANK-Fc captured at low density on the surface of a C1 sensorchip were recorded using concentrations ranging from 100 pM to 562 nM. At very low receptor density, RANKL proteins bind only one receptor molecule, allowing the data to be fitted to a Langmuir 1:1 interaction model (29). RANKL WT needed a very low density (<20 resonance units (RU)) to come close to a 1:1 ratio (FIG. 3A). […] Maximum binding of 5.5 RU is reached, which is slightly lower than the expected Rₘₐₓ value of 6.8 RU for a 1:1 ratio, but definitely larger than 3.4 RU, the Rₘₐₓ value expected for a binding ratio of 2 molecules of RANK per flag-mRANKL WT trimer. Similar to mRANKL WT, binding of RANKL mD1 or mD2 to mRANK-Fc results in slightly lower Rₘₐₓ values than expected for a 1:1 binding ratio: 24 RU D1 compared to 26 RU, and 20 RU D2 compared to 23 RU (FIG. 15A). These binding ratio's could be reached with mD1 and mD2 at densities of mRANK-Fc of <50 RU. The approximate 1:1 binding of RANKL proteins to mRANK-Fc allows fitting the data to the 1:1 Langmuir binding model.

B1: murine flagRANKL WT (wild-type mRANKL containing an N-terminal flagtag) (ligand, mouse, UniProt O35235 160-316, looked up)
chain: EAQPFAHLTINAASIPSGSHKVTLSSWYHDRGWAKISNMTLSNGKLRVNQDGFYYLYANICFRHHETSGSVPTDYLQLMVYVVKTSIKIPSSHNLMKGGSTKNWSGNSEFHFYSINVGGFFKLRAGEEISIQVSNPSLLDPDQDATYFGAFKVQDID
notes: Trimeric; also called flag-mRANKL WT; mWT; not shown: N-terminal flagtag
Human RANK-Fc
  Kd: 0.104 nM
  koff: 0.000575 s⁻¹
  kon: 5.63e+06 M⁻¹ s⁻¹
Murine RANK-Fc [1]
  Kd: 0.0315 nM
  koff: 0.000189 s⁻¹
  kon: 6.14e+06 M⁻¹ s⁻¹
Murine RANK-Fc [2]
  EC50: 0.6 nM
Murine RANK-Fc [3]
  Ka: 4.4e+10 M⁻¹
  Kd: 0.065 nM
  koff: 0.00034 s⁻¹
  kon: 5.9e+06 M⁻¹ s⁻¹
